Results taken from patent US5871948A.

Substrate: NC(=O)c1ccc[n+]([C@@H]2O[C@H](COP(=O)(O)OP(=O)(O)OC[C@H]3O[C@@H](n4cnc5c(N)ncnc54)[C@H](OP(=O)(O)O)[C@@H]3O)[C@@H](O)[C@H]2O)c1
Test: purified protein, by the assay type

B1: thermostable isocitrate dehydrogenase (iCDH) purified from Sulfolobus acidocaldarius DSM 639, FERM BP-5567 (Sulfolobus acidocaldarius DSM 639) (protein)
chain: MVMLYKEPQDGEPIKFEKGKWVVPNKPIILYIEGDGIGPEITNSAIRVVNKAVEKAYKSSREIKWLEVYAGEKANKITGDRFPKETQDMLLKYRVVLKGPLETPIGKGWKSINVAIRLMLDLYANIRPVKYIEGLESPLKHPEKVDMIIFRENTDDLYRGIEFPYDSEEAKKIRKFLREELKVDIEDDTGIGLKVMSKFKTQRITRLALNYALQNSRKKVTVMHKGNVMKYTEGSFREWAYEVALNEYRDKIVTEEEINRGVNSEGKVILNDRIADNMLQQIIIRPDEYDIILAPNVNGDYISDAAGALIGNIGMLGGANIGDTGGMFEAIHGTAPKYAGKNVANPTGIIKSCELMLYFMGWSEAARLIEKAINESIKQKKVTQDIARYLGITPLGTKEYTDTLVQIMDSF
B1 showed a Km (other: pH 8.6, 37° C., pH 8.6) of 66 µM, a Km (other: pH 9.5, 37° C., pH 9.5) of 42 µM and a Km (other: pH 10.0, 37° C., pH 10.0) of 48 µM.
